These results are taken from patent US20030021792A1.

A value given as a limit tells only on which side of the number the result lay.

Assay [1] concerns the target rat dipeptidyl peptidase IV (rat) (UniProt P14740). Kind of assay: Europium-labelled antibody injected in rat, time-resolved fluorescence of lung homogenate.
Assay [2] shares this target. Description: 125I-labelled antibody injected in rat, scintigraphy of tissues.
The target of assay [3] is rat MadCam-1 (rat) (UniProt O70540). Description: Europium-labelled antibody injected in rat, time-resolved fluorescence of small intestine homogenate.
Sequence of UniProt O70540 (O70540 20-394 limits assumed): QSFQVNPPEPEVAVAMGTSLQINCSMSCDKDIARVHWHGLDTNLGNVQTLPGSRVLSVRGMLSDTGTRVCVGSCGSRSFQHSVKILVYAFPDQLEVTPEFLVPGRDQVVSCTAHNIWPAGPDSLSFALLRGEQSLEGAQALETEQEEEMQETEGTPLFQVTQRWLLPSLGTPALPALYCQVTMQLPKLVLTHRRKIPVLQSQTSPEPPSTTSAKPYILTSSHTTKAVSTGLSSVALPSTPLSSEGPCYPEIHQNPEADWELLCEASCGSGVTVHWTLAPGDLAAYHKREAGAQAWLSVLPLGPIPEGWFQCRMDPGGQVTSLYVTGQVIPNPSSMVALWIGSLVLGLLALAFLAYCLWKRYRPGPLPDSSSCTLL
Assay [4] shares this target. Description: Europium-labelled antibody injected in rat, time-resolved fluorescence of pancreas homogenate.

Sequence of UniProt P14740 (P14740 whole entry R38A/Q470G): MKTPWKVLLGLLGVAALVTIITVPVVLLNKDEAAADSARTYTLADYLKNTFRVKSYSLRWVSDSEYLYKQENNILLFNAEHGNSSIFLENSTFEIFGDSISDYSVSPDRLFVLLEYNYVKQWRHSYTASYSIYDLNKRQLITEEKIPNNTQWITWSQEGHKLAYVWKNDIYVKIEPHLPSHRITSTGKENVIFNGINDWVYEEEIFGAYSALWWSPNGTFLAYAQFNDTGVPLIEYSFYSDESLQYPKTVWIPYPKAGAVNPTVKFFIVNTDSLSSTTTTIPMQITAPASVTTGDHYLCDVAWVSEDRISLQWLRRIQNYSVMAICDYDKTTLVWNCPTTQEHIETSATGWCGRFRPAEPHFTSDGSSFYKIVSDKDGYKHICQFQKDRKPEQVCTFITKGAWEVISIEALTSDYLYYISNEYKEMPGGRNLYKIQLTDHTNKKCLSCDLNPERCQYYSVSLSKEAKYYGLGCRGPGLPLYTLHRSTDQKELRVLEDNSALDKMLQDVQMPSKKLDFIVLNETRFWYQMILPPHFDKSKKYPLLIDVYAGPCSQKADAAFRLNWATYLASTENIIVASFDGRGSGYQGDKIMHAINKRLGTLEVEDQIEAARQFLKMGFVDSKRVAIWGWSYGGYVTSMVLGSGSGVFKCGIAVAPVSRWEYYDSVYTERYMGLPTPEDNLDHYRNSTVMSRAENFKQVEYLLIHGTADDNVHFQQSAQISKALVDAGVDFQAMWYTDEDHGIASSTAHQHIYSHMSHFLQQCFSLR

In assay [1], “OX-61 (Pharmingen), mouse monoclonal antibody specific for DPP-4” displayed a percent of injected dose localized in the lungs (5 µg dose, 30 minutes) (% of injected dose) of 15 and a percent of injected dose localized in the lungs (5 µg dose, 6 hours) (% of injected dose) of 7. In assay [2], this substance yielded an antibody per gram of lung tissue (5 µg dose, 5 minutes) (µg per gram of tissue) greater than 0.4; an antibody per gram of lung tissue (5 µg dose, 8 hours) (µg per gram of lung tissue) of 0.7; a percent of injected dose localized in the lung (1 µg dose, 2 hours) (% of injected dose) of 22; a percent of injected dose localized in the lung (1 µg dose, 8 hours) (% of injected dose) of 30. In assay [2], this substance had a percent of injected dose localized in the lung (5 µg dose, 5 minutes) (% of the initial antibody dose) of 20.
Substance “OST-2 (Pharmingen), mouse monoclonal antibody that recognizes rat MadCam-1” yielded a percent of injected dose in the small intestine (5 µg dose, 6 hours) (% of injected dose) in assay [3] greater than 5. Further, in assay [4], the percent of injected dose localized to the pancreas (5 µg dose, 6 hours) (% of injected dose) was determined as 3.
